The source of these data is patent US20260274966A1.

The experiment concerns the target CD137 on activated CEMT cells (UniProt Q07011). The experiment is described as follows: Flow cytometry on PMA/ionomycin-activated CEMT cells, protein at 0.48 nM, detection anti-human Fc-FITC; lower panel 'Cell binding - CD137'.

With CET (antibody), the MFI stood at 1.07.
